In general, Kd refers to the constant that tells how readily two partners part at equilibrium. By koff is commonly meant the rate constant with which the complex falls apart. Read a low koff as a long-lived complex. A word on the kon: it is the second-order rate constant of association. Low values mean slow association, high ones fast association.

For assay [1], the target named is T1, granulocyte colony-stimulating factor receptor (G-CSFR) (human, UniProt Q99062 25-621, limits assumed).
T1 construct: also called GCSF receptor; G-CSF receptor
T1 sequence (looked up): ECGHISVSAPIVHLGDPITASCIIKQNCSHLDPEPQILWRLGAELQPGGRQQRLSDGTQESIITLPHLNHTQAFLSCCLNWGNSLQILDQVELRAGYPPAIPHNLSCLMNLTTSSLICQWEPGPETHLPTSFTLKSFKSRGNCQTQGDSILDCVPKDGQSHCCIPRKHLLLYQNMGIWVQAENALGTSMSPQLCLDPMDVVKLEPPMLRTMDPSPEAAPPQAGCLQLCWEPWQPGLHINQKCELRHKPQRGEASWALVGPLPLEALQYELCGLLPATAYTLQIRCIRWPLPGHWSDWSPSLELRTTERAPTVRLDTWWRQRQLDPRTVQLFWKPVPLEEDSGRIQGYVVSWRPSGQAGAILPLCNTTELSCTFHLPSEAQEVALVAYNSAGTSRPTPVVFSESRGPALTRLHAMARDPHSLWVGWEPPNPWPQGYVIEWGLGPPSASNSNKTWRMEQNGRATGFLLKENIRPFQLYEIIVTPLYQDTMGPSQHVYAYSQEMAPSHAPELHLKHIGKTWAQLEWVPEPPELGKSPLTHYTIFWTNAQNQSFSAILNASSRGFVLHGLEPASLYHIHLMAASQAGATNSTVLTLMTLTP
Put plainly: SPR (Biacore CM5), G-CSFR immobilised, analyte in flow, 1:1 kinetic fit, KD = kd/ka. Here is the method: (§1) In this example, G-CSFR (GCSF receptors) were immobilized onto the Sensor Chip CM5 (Biacore, trademarked) as the ligand. In each testing samples, Filgrastim RS (reference standard), MetHuG-CSF, and mPEG-MetHuG-CSF, as the analyte, were flowed through the ligand on CM5 chip respectively. The titration range of test sample analytes used in the assay was 40.5, 20.2, […], 10.1, 5.1, 2.5, 1.3 and 0.6 nM. Formulation buffers of testing samples were also tested as negative controls. The binding between the ligand and the analyte was monitored through SPR sensorgram. As slow-on and slow-off sensorgrams were observed, the kinetics fit model (“1:1 binding”) was used to obtain association constant (ka) and dissociation constant (kd), and KD was calculated by kd/ka.
(In SPR one partner is held on a chip, and binding of the other changes the refractive index at the surface.)

Assay [2] concerns the target T1, granulocyte colony-stimulating factor …. As to the kind of experiment: SPR (Biacore CM5), G-CSFR immobilised, analyte in flow, 1:1 kinetic fit. Here is the method:
as §1

Assay [3] shares this target. Put plainly: SPR (Biacore CM5), G-CSFR immobilised; this sample is the reference itself. The procedure: as §1
(§2) In Table 6 below, KD values of three testing samples towards G-CSFR were determined by SPR and summarized in the unit of molar concentration (M). For the KD ratio, the KD value of each testing sample was normalized with KD of Filgrastim RS.

The target is the same in assay [4]. Put plainly: SPR (Biacore CM5), G-CSFR immobilised; KD divided by KD of Filgrastim RS. The procedure: as §1, §2

B1: Filgrastim Reference Standard (ligand, human, UniProt P09919-2 31-204, looked up)
chain: TPLGPASSLPQSFLLKCLEQVRKIQGDGAALQEKLCATYKLCHPEELVLLGHSLGIPWAPLSSCPSQALQLAGCLSQLHSGLFLYQGLLQALEGISPELGPTLDTLQLDVADFATTIWQQMEELGMAPALQPTQGAMPAFASAFQRRAGGVLVASHLQSFLEVSYRVLRHLAQP
notes: also called Filgrastim RS
Regarding B1, the affinity in assay [1], expressed as Kd, was 0.595 nM. Further, in assay [2], the koff turned out to be 0.000444 s⁻¹ and the kon was determined as 747000 M⁻¹ s⁻¹. In assay [3], the “KD ratio (normalised to Filgrastim RS)” value was 1.

B2: mPEG-MetHuG-CSF (ligand)
chain: MTPLGPASSLPQSFLLKCLEQVRKIQGDGAALQEKLCATYKLCHPEELVLLGHSLGIPWAPLSSCPSQALQLAGCLSQLHSGLFLYQGLLQALEGISPELGPTLDTLQLDVADFATTIWQQMEELGMAPALQPTQGAMPAFASAFQRRAGGVLVASHLQSFLEVSYRVLRHLAQP
modifications: branched mPEG (two arms, each about 19-23 KDa; 40K-mPEG-aldehyde) covalently attached by amine linkage to the N-terminal Met (residue 1)
notes: also called P2203
With B2, in assay [1], the Kd stood at 0.982 nM. In assay [2], the koff came to 0.000401 s⁻¹ and the kon stood at 408000 M⁻¹ s⁻¹. Further, the “KD ratio (normalised to Filgrastim RS)” value in assay [4] came out at 1.65.

B3: MetHuG-CSF (ligand)
chain: B2 chain
notes: 175 aa: the 174 aa human G-CSF plus an N-terminal Met; also called MetHuG-CSF intermediate; human G-CSF with additional N-terminal Met
B3: binding in assay [1] was characterised by a dissociation constant (Kd) of 0.713 nM. In assay [2], this molecule returned a koff of 0.000469 s⁻¹ and a kon of 657000 M⁻¹ s⁻¹. Also, in assay [4], the “KD ratio (normalised to Filgrastim RS)” value came out at 1.2.
